Experimental data: patent publication US20190031713A1 (Regeneron, published 2019)
Positions count from the first letter of the chain named.

B1: differentially modified heterodimeric human IgG2 Fc/ΔAdpFc (other)
chain 1: ERKCCVECPPCPAPPVAGPSVFLFPPKPKDTLMISRTPEVTCVVVDVSHEDPEVQFNWYVDGVEVHNAKTKPREEQFNSTFRVVSVLTVVHQDWLNGKEYKCKVSNKGLPAPIEKTISKTKGQPREPQVYTLPPSREEMTKNQVSLTCLVKGFYPSDIAVEWESNGQPENNYKTTPPMLDSDGSFFLYSKLTVDKSRWQQGNVFSCSVMHEALHNHYTQKSLSLSPGK
chain 2: B1 chain 1 with H216R, Y217F
B2: unmodified human homodimeric IgG2 Fc/Fc (other, UniProt P01859-1 99-326, looked up)
chain: B1 chain 1 with A159S
notes: domain: Fc; also called hIgG2 Fc/Fc; hIgG2

Target: T1, Protein A (on chromatography support) (UniProt P38507 37-327)
T1 construct: Commercial recombinant Protein A resins; also called rProtein A FF; NAb Protein A Plus
Assay: rProtein A FF column, pH gradient, 20 mM sodium citrate, 1 M NaCl
Method: The solvent system consisted of solvent A (PBS, 1×), solvent B (20 mM sodium citrate and 1 M NaCl, pH 5.5) and solvent C (20 mM sodium citrate and 1M NaCl, pH 2.5). The elution started with an isocratic elution with 100% A in the first 20 min followed by a quick switch to 100% B at 20 min. […] A linear gradient from 33.5% C to 100% C was followed for 30 min. The flow rate was kept 250 microliters/min and the chromatograms were detected at 280 nm by a UV detector.

| Binder | elution pH from Protein A column |
| --- | --- |
| B1 | 4.5 pH |
| B2 | 3.5 pH |
